Molecular target: the molecule itself
Assay: SDS-PAGE + MALDI-TOF; purified GbXΔNC heat-denatured in SDS sample buffer (2.5% β-mercaptoethanol), 15% SDS-PAGE; also 10–15% gradient gels (PhastSystem) in the absence and presence of DTT; bands identified by MALDI-TOF after tryptic digest

B1: N- and C-terminally truncated Danio rerio globin X (GbXΔNC) (domain or fragment, Danio rerio (zebrafish), UniProt A0AC58HMV5 25-184, looked up)
chain: PAGLTANHIRLIKESWRLIQEDIAKVGIIMFVRLFETHPECKDVFFLFRDVEDLERLRTSRELRAHGLRVMSFIEKSVARLDQLERLETLALELGKSHYRYNAPPKYYGYVGAEFICAVRPILKDRWTPELEEAWKTLFQYVTSIMREGFLEEERNKRSN
notes: globin X (GbX) of zebrafish (Danio rerio), amino acids 25 to 184 (the globin core), cloned into pET3a; Heme protein; No tag is mentioned for the pET3a construct; also called recombinant truncated GbX; source: E. coli BL21(DE3)pLysS, purified (ammonium sulfate precipitation, ion-exchange, size exclusion chromatography)
- stoichiometry N: 2
